Assay: soluble on expression in E. coli; label from the status in PepcDB or PDB records

| Sequence | soluble on expression in E. coli |
| --- | --- |
| PHMQPFDSGHDDLVHDVVYDFYGRHVATCSSDQHIKVFKLDKDTSNWELSDSWRAHDSSIVAIDWASPEYGRIIASASYDKTVKLWEEDPDQEECSGRRWNKLCTLNDSKGSLYSVKFAPAHLGLKLACLGNDGILRLYDALEPSDLRSWTLTSEMKVLSIPPANHLQSDFCLSWCPSRFSPEKLAVSALEQAIIYQRGKDGKLHVAAKLPGHKSLIRSISWAPSIGRWYQLIATGCKDGRIRIFKITEKLSPLASEESLTNSNMFDNSADVDMDAQGRSDSNTEEKAELQSNLQVELLSEHDDHNGEVWSVSWNLTGTILSSAGDDGKVRLWKATYSNEFKCMSVITAQQ | soluble |
| PKLSQDEIDDLKDVFELFAFWDGRDGAVDAFKLGDVCRCLGINPRNEDVFAVGGTHKMGEKSLPFEEFLPAYEGLMDCEQGTFADYMEAFKTFDREGQGFISGAELRHVLTALGERLSDEDVDEIIKLTDLQEDLEGNVKYEDFVKKVMAGPYPDK | soluble |
| PKPLKNLDGQFCEICGDQIGLTVEGDLFVACNECGFPACRPCYEYERREGTQNCPQCKTRYKRLRGSPRVEGDEDEEDID | soluble |
| PKYQANTQILVNQTKGDNPQFMAQEVQSNIQLVNTYKEIVKSPRILDEVSKDLNDKYSPSKLSSMLTITNQENTQLINIQVKSGHKQDSEKIANSFAKVTSKQIPKIMSVDNVSILSKADGTAVKVAPKT | not soluble |
| PMVALVGARNASSLGLRMARKLAAALGEAGYVVVSGLARGIDAEAHAAALGQGTVAVQAGGVDVIYPAENAGLAAEIAARGCRISEQPMGLVPQARHFPLRNRIVSGLARAVVVVEAAARSGSLITAREALDQGREVLAVPGHPFDPRAAGGNQLIREGATLVRHAADVIEAIGTAHPA | not soluble |
| PNARSQPSKTLFVKGLSEDTTEETLKESFDGSVRARIVTDRETGSSKGFGFVDFNSEEDAKAAKEAMEDGEIDGNKVTLDWAKPKGEGG | soluble |
| PPNEQAVLNMYEGKRSELSQIYSNITDLEMQVSEHSLVINAIQPLDQSRKCFRMIGGVLVERTIKEVLPAVQRNKDGLEEVVRKLYETLEKKKKDLTEFEAKYKIRITKQEDNKEGGNKKEGNAQGVLVGAASSSQ | not soluble |
| PPYTIVYFPVRGRAEAMRMLLADQGQSWKEEVVTIDTWMQGLLKPTCLYGQLPKFEDGDLTLYQSNAILRHLGRSLGLYGKNQREAAQMDMVNDGVEDLRGKYVTLIYTNYENGKNDYVKALPGHLKPFETLLSQNQGGKAFIVGDQISFADYNLLDLLLIHQVLAPGCLDNFPLLSAYVARLSARPKIKAFLSSPEHVNRPINGNGKQ | soluble |
| PQFHLWKRPVVTAHIEGQPVEVLLDTGADDSIVTGIELGPHYTPKIVGGIGGFINTKEYKNVEVEVLGKRIKGTIMTGDTPINIFGRNLLTALGMSLNF | soluble |
| PRRGPVAKRDVLPDPIYNSKLVTRLINKIMIDGKKSKAQKILYTAFDIIRERTGKDPMEVFEQALKNVMPVLEVRARRVGGANYQVPVEVRPDRRVSLGLRWLVQYARLRNEKTMEERLANEIMDAANNTGAAVKKREDTHKMAEANKAFAHYRW | soluble |
| PRYTEVTEEQIIVKQIWGQLVFDRKEMEIVPIGKDDLKSSLRTFGNGGLFGYAGYFRNKKLGKYRMYVTRLKDLSLLTDRNGKKTVINLRQV | not soluble |
| PSETFYRAKIQEQRERHARYHDTTYNLEPDIKSTPGGLRDIHTLSWVARRHFGATSLLEMSRYGFLTDAEYRELVECQDFLWRVRFALHIELRRYDNRLTFAHQAQVAENLGYVGEGNRGVEMMMKEFYRTLRRVAELNKMLLKLFDQAIINGGATENAEILDADFQRRGSLIEARKPALFQARPETILDMFLHIANDSTIEGVSPPTLRQLRTARRRLN | not soluble |
| PSTLLKNYQDNNKMLVLALENEKSKVKEAQDIILQLRKECYYLTCQL | soluble |
| PTANIMFDRRVVRGNTYAARILPADATQTQTKGPSPASTKKRTTRTLPPRTPEAVDGRRHIDIQTDVYLEELTDTVPEADTSTQTDAFLDRPPTPLFVPQKTGTDAITQIENGDLFDFDFEVEPILEVLVGKVLEQGLMEVLEEEELAAMRAHQEHFEQIRNAELVATQRMEAAERRKLEEKERRMQQERERVERERVVRQKVAASAFARGYLSGIVNTVFDRLVSSGYIYDPVMREVETAFMPWLKEQAIGYLARGVVARRVVDKLVEDAAAALAANRSTLADKAASTAATVDAWAERQAKMEAELQGKELEAVRRRPTFVLRELKPAVASADAVEAAAAELTAQAEEAANAKWEA | not soluble |
| PVNTKRSNGTKRVEFPTTKKSMCIGNSTPNEQETFRAKVDEIWFRLTQKTDGTVMRDFLIEKAAEYFKQPEQPKQNAIEVISAIMAPQEEQTKSKADLYKFLAMFGPYETIMLKIASLLLISNNKGHWLTFDPQAEKNANNQRDSISGWFDQNEPNCLILKTPTGIRKIWNKPLIEATGQYLMDENGEKYDSWDKYFEMKPIETYLTAYPTFAPMHHHHHH | soluble |
| PVPATPILQLEECCTHNNSATLSWKQPPLSTVPADGYILELDDGNGGQFREVYVGKETMCTVDGLHFNSTYNARVKAFNKTGVSPYSKTLVLQTSEG | soluble |
| PVYAGGQVARGGQLGVLGNADIMDVPFTMTSYTEQLIEDQQAEDVGDVLLNDASVRQSSGYANASKIFVIRGLKLTTDDISYNGLYGVLPRQIISTDALERVEVFKGPNA | not soluble |
| QAALNSLGTNSVAATTAAQKIDQVATQPLMSFGVTMATFAAQNYGAHQYERIITGVKQTMWLSGSFSVAAGLIEIIWGKQLVGFFVGHQDMAVLNL | not soluble |
| QEAQANTESEKRRLDSVITHMSDGILATDRRGRVRIANDMALKMLGLAKEDVIGYYMLGVLNLENEFSLEEIQENSDSFLLDINEEEGIIARVNFSTIVQETGFVTGYIAVLHDVT | not soluble |
| QGHMAWSAQQYLKFEDERTRPARDLLAQVPLERVLNGYDLGCGPGNSTELLTDRYGVNVITGIDSDDDMLEKAADRLPNTNFGKADLATWKPAQKADLLYANAVFQWVPDHLAVLSQLMDQLESGGVLAVQMPDNLQEPTHIAMHETADGGPWKDAFSGGGLRRKPLPPPSDYFNALSPKSSRVDVWHTVYNHPMKDADSIVEWVKGTGLRPYLAAAGEENREAFLADYTRRIAAAYPPMADGRLLLRFPRLFVVAVKK | soluble |
| QILVVRNQVIFPYNGFELDVGRERSKKLIKALKNLKTKRLVLVTQKNSDQLNPEFDDIYHCGTLCDIDEIIEVPSEDGKTADYKIKGKGLQRVAITSFSDADLTKYDHHFLNSTLTENKALDKLLERIFPDKEDFAEILDSLNSFLELQELKKLSKVPKDIKRYDIITFKLASLIFKDITLQQAILEENDIEKRLQKIIGS | soluble |
| QIQLVQSGPELKKPGETVRISCKASDYSFMTSGMQWVQQMPGKGLKWIGWLNTQSGVPEYAEDFKGRFAFSLETSATTAYLQINNLKNEDTATYFCATWGGNSAYWGQGTTLTVSSAKTTPPSVYPLAPGSAAQTNSMVTLGCLVKGYFPEPVTVTWNSGSLSSGVHTFPAVLQSDLYTLSSSVTVPSSTWPSETVTCNVAHPASSTKVDKKIVPRDC | soluble |
| QKDFSWNASLLYAFNRNKVKHISVQPSLWDSRISMPTSYPMVGKPLYGIYAYKWAGLNENGDPQVYDAENNVTSGPARDYHALVYCGTTVPIHNASLTNVLRYKGFEFSAMLILDAGHKLRSSNIPSINMSNGRITSTAKGIVDRWTQPGDVTDVPRLLFSNDTENFNTHRTELYRYSDLFVYDASNIRLSNISLAYRVPAHWCKKISLSGARLQFNVENVATFAFDSKANYDLGGKVKPNYVWGLYLNF | not soluble |
| QLHELANTFGQDLQRRYGEKVHKLTLHGGFSCPNRDGTIGKGGCTFCNVASFADEQEQFKSIHDQLTDRAGEVQRAKKYLAYFQAYTSTFAEVQVLKNMYEEALKAANIVGLCVGTRPDCVPDAVLDLLKGYVDDGYEVWLELGLQTANDKTLKRINRGHDFACYDAITRKARSLGIKVCTHLIIGLPGDTRDDNRQTLDKVLATGTDGIKLHPLHIVEGSTLAKAWRAGKLDAPEMDEYVDIACELIRLTPPEVVYHRVSATARQPTLLSPLWCEPRWLGLTNVGMALNNSGPQGS | not soluble |
